Consider 2 molecules from paper PMC8238519 (Biochemical Journal, 2021).

The target of test [1] is Chlamydomonas reinhardtii photosystem I PsaA-Asp648Arg (Chlamydomonas reinhardtii) (UniProt P12154).
The target in the next test is pea PsaA (Pisum sativum (pea), UniProt P05310 16-758). Put plainly: cryo-EM structure.
In another test the target is pea PsaB (Pisum sativum (pea), UniProt P05311 13-734). Put plainly: cryo-EM structure.
Sequence of pea PsaB (P05311 13-734): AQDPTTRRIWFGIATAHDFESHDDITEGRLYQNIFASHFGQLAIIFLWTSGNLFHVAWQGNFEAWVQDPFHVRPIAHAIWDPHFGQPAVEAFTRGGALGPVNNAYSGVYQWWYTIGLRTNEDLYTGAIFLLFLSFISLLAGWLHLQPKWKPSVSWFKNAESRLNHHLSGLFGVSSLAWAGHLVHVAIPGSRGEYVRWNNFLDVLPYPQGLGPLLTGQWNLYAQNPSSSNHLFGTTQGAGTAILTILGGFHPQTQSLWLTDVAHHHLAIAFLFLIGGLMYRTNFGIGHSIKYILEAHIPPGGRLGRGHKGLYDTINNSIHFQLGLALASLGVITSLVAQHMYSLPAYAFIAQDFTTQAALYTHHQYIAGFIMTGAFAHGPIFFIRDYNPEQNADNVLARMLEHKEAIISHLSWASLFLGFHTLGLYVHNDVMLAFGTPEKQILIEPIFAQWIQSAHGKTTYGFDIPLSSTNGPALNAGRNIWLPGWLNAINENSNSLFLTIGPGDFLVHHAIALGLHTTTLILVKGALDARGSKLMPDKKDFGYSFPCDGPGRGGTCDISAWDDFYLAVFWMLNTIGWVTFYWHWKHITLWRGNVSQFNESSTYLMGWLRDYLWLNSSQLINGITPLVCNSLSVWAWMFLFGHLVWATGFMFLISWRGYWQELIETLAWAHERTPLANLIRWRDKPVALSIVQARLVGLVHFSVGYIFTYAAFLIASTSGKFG

Sequence of pea PsaA (P05310 16-758): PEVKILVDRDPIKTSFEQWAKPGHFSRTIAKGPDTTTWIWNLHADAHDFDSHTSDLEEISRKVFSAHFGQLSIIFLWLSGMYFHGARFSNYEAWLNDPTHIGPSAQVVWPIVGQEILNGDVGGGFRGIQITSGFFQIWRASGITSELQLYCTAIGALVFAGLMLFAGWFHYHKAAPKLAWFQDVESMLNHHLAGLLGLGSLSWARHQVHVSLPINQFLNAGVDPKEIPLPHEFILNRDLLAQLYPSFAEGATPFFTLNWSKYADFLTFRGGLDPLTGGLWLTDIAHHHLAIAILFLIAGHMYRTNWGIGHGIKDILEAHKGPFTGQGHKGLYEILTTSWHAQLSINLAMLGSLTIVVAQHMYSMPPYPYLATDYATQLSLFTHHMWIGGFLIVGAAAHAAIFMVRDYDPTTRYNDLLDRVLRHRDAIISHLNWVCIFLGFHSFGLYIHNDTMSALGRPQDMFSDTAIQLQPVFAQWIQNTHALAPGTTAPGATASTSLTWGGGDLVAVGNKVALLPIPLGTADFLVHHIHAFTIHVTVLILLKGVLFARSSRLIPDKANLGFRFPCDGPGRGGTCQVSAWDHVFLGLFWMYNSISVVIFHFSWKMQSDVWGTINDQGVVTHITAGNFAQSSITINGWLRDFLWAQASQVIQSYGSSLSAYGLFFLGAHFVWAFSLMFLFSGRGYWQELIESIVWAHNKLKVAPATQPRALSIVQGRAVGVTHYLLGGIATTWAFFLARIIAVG

With “Chlamydomonas reinhardtii plastocyanin (natural protein)”, in test [1], the second-order rate constant of P700+ reduction by Pc (single flash absorption) amounted to 6.54e+07 M⁻¹ s⁻¹.

B1: pea plastocyanin (natural protein, pea (Pisum sativum), UniProt P16002 70-168, looked up)
chain: VEVLLGASDGGLAFVPSSLEVSAGETIVFKNNAGFPHNVVFDEDEIPAGVDASKISMPEEDLLNAPGETYSVKLDAKGTYKFYCSPHQGAGMVGQVTVN
As for B1, the binding result with pea PsaA and in the test with pea PsaB was “binds” in each case.
